From paper doi:10.1101/2021.12.14.472599
Where two headings read alike, the source gives them in different places.

B1: ssRNA (TF-A) (ssRNA)
RNA: AUAAUGGUUUCUUAGACGUCGUUUUAGAGCUGUGUUGUUUCG
B2: gRNA TF-A + nsp-ssDNA MZ-589 (mixed)
RNA: B1 RNA
DNA: GGAGATGGGAAGTCATTAGATGTAGAACTTGAATGGCAACGG
modifications: 5'-phosphate on guide
B3: gRNA TF-A + target ssDNA MZ-949 (DNA:RNA)
RNA: B1 RNA
DNA: CGAAACAACACAGCTCTAAAACGACGTCTAAGAAACCATTAT
modifications: 5'-phosphate on guide
B4: gRNA TF-A + target ssRNA MZ-1185 (dsRNA)
RNA 1: B1 RNA
RNA 2: CGAAACAACACAGCUCUAAAACGACGUCUAAGAAACCAUUAU
modifications: 5'-phosphate on guide
B5: RNA/DNA heteroduplex (TF-A/MZ-949) (DNA:RNA)
RNA: B1 RNA
DNA: B3 DNA
B6: dsRNA (TF-A/MZ-1185) (dsRNA)
RNA 1: B1 RNA
RNA 2: B4 RNA 2
B7: ssDNA (TK-49) (ssDNA)
DNA: ATAATGGTTTCTTAGACGTCGTTTTAGAGCTGTGTTGTTTCG
B8: circular ssDNA (TK-49) (ssDNA)
DNA: B7 DNA
modifications: circularised by CircLigase II
B9: gDNA TK-49 + target ssDNA MZ-949 (dsDNA)
DNA 1: B7 DNA
DNA 2: B3 DNA
modifications: 5'-phosphate on guide
B10: dsDNA (TK-49/MZ-949) (dsDNA)
DNA 1: B7 DNA
DNA 2: B3 DNA
B11: gDNA TK-49 + target ssRNA MZ-1185 (DNA:RNA)
DNA: B7 DNA
RNA: B4 RNA 2
modifications: 5'-phosphate on guide

Columns and labels:
[1] = target: TwinStrep-CcSir2 protein (TwinStrep-tag fused to the N-terminus of His6-CcSir2) (Caballeronia cordobensis); assay: co-elution from a Heparin column with SDS-PAGE densitometry
GsSir2;GsAgo [2] = target: T1, GsSir2;GsAgo (Geobacter sulfurreducens Caccavo (ATCC …, UniProt Q74DF6;Q74DF5 1-587;1-473, |)); assay: EMSA
GsSir2;GsAgo [3] = target: T1, GsSir2;GsAgo; assay: EMSA; remark: listed apart in the source
GsSir2(D230A);GsAgo [4] = target: T2, GsSir2(D230A);GsAgo (Geobacter sulfurreducens Caccavo (ATCC …, UniProt Q74DF6;Q74DF5 1-587;1-473, D230A|)); assay: EMSA
GsSir2(D230A);GsAgo [5] = target: T2, GsSir2(D230A);GsAgo; assay: EMSA; remark: listed apart in the source
GsSir2;GsAgo [6] = target: T1, GsSir2;GsAgo; assay: EMSA; remark: listed apart in the source
GsSir2APAZ;GsAgo = GsSir2APAZ;GsAgo (Geobacter sulfurreducens Caccavo (ATCC …, UniProt Q74DF6;Q74DF5 1-587;1-473, R440E;R442E;R517E;R525E;R528E;R531E|)); assay: EMSA

Molecule	Kd (GsSir2;GsAgo [2]) [nM]	Kd (GsSir2;GsAgo [3]) [nM]	further results
CcAgo protein (short pAgo of the CcSir2/Ago system) (natural protein)			stoichiometry N [1]: 1 Sir2:Ago
B1	0.042 ± 0.015		
B2		0.42 ± 0.231	
B3		0.02 ± 0.008	Kd (GsSir2(D230A);GsAgo [4]): 0.038 ± 0.013 nM; Kd (GsSir2(D230A);GsAgo [5]): 0.14 ± 0.057 nM; Kd (GsSir2;GsAgo [6]): 0.079 ± 0.007 nM; binding result (GsSir2APAZ;GsAgo): no binding
B4		0.205 ± 0.058	Kd (GsSir2;GsAgo [6]): 0.567 ± 0.112 nM
B5	4.31 ± 0.37		
B6	73 ± 29		
B7	0.033 ± 0.016		
B8	0.072 ± 0.018		
B9		0.022 ± 0.005	
B10	51 ± 20		
B11		0.252 ± 0.114	
